# Measured values published in patent US20260116991A1 (HAINAN SIMCERE ZAIMING PHARMACEUTICAL, published 2026).
# Columns and labels:
# [1] = molecular target: T1, monkey GPC3 on HEK293T-monkey GPC3 cells (monkey); experiment: FACS on HEK293T-monkey GPC3 cells
# T1 construct: whole, on cells
# human GPC3-His protein = molecular target: T2, human GPC3-His protein (human, UniProt P51654 25-559, limits assumed); experiment: SPR, antibody captured on Protein A chip, human GPC3-His injected, 1:1 Langmuir model;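 note: flow cell at 25 °C, antigen injected for 240 s at five twofold dilutions starting at 200 nM, dissociation followed up to 600 s, double-referenced sensorgrams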
# T2 construct: also called human GPC3 protein; not shown: His tag
EC50 [1] [nM],Max MFI [1] [MFI],Kd (human GPC3-His protein) [nM],koff (human GPC3-His protein) [s⁻¹],kon (human GPC3-His protein) [M⁻¹ s⁻¹],Binder
1.54,32900,19.8,0.937,4.74e+07,"hAb001H1L1b (antibody, human IgG1, V domains shown, Humanized F2.169.2) VH: EVQLVESGGGLVQPGGSLRLSCAASGFSFNTNAMNWVRQAPGKGLEWVGRIRSKSNNYATYYADSVKDRFTISRDDSKNSLYLQMNSLKTEDTAVYYCVRDGYYVLFAYWGQGTLVTVSS VL: DIVMTQTPLSLPVTPGEPASISCRFSQSIVNSNANTYLEWFLQKPGQSPQLLIYKVSNRFSGVPDRFSGSGSGTDFTLKISRVEAEDVGVYYCFQGSHVPFTFGQGTKLEIK"
1,34000,27,0.0701,2.6e+06,"hAb001H1aL1 (antibody, human IgG1, V domains shown, Humanized F2.169.2) VH: EVQLVESGGGLVQPGGSLRLSCAASGFSFNTNAMNWVRQAPGKGLEWVGRIRSKSNNYATYYADSVKGRFTISRDDSKNSLYLQMNSLKTEDTAVYYCVRDGYYVLFAYWGQGTLVTVSS VL: DIVMTQTPLSLPVTPGEPASISCRFSQSIVNSNGNTYLEWFLQKPGQSPQLLIYKVSNRFSGVPDRFSGSGSGTDFTLKISRVEAEDVGVYYCFQGSHVPFTFGQGTKLEIK"
0.96,32600,109,0.0167,153000,"hAb001H1aL1b (antibody, human IgG1, V domains shown, Humanized F2.169.2) VH: EVQLVESGGGLVQPGGSLRLSCAASGFSFNTNAMNWVRQAPGKGLEWVGRIRSKSNNYATYYADSVKGRFTISRDDSKNSLYLQMNSLKTEDTAVYYCVRDGYYVLFAYWGQGTLVTVSS VL: DIVMTQTPLSLPVTPGEPASISCRFSQSIVNSNANTYLEWFLQKPGQSPQLLIYKVSNRFSGVPDRFSGSGSGTDFTLKISRVEAEDVGVYYCFQGSHVPFTFGQGTKLEIK"
1.41,33100,19.2,0.0101,526000,"hAb001H2L1b (antibody, human IgG1, V domains shown, Humanized F2.169.2) VH: EVQLVESGGGLVQPGGSLRLSCAASGFSFNTNAMNWVRQAPGKGLEWVGRIRSKSNNYATYYADSVKDRFTISRDDSKSSLYLQMNSLKTEDTAVYYCVRDGYYVLFAYWGQGTLVTVSS VL: DIVMTQTPLSLPVTPGEPASISCRFSQSIVNSNANTYLEWFLQKPGQSPQLLIYKVSNRFSGVPDRFSGSGSGTDFTLKISRVEAEDVGVYYCFQGSHVPFTFGQGTKLEIK"
1.56,28200,1.93,0.000453,234000,"hAb003LH1L1 (antibody, human IgG1, V domains shown, Humanized F2.154.1) VH: EVQLVQSGAEVKKPGSSVKVSCKASGYTFSDYEMHWVRQAPGQGLEWMGTIDPETGNTAYTQKFMDRVTITADKSTSTAYMELSSLRSEDTAVYYCTRGYSFTYWGQGTLVTVSS VL: DIVMTQTPLSLPVTPGEPASISCRSSQNIVHSNGNTYLQWYLQKPGQSPQLLIFKVSNRFSGVPDRFSGSGSGTDFTLKISRVEAEDVGVYYCFQGSHVPFTFGQGTKLEIK"
1.46,28400,1.68,0.000415,246000,"hAb003LH1L1b (antibody, human IgG1, V domains shown, Humanized F2.154.1) VH: EVQLVQSGAEVKKPGSSVKVSCKASGYTFSDYEMHWVRQAPGQGLEWMGTIDPETGNTAYTQKFMDRVTITADKSTSTAYMELSSLRSEDTAVYYCTRGYSFTYWGQGTLVTVSS VL: DIVMTQTPLSLPVTPGEPASISCRSSQNIVHSNRNTYLQWYLQKPGQSPQLLIFKVSNRFSGVPDRFSGSGSGTDFTLKISRVEAEDVGVYYCFQGSHVPFTFGQGTKLEIK"
0.793,31100,2.08,0.000501,240000,"hAb003LH2L1b (antibody, human IgG1, V domains shown, Humanized F2.154.1) VH: EVQLVQSGAEVKKPGSSVKVSCKASGYRFTDYEMHWVRQAPGQGLEWMGTIDPETGNTAYTQKFMDRVTITADKSTSTAYMELSSLRSEDTAVYYCTRGYSFTYWGQGTLVTVSS VL: DIVMTQTPLSLPVTPGEPASISCRSSQNIVHSNRNTYLQWYLQKPGQSPQLLIFKVSNRFSGVPDRFSGSGSGTDFTLKISRVEAEDVGVYYCFQGSHVPFTFGQGTKLEIK"
2.62,24300,8.49,0.00231,272000,"hAb005LH1L1b (antibody, human IgG1, V domains shown, Humanized F3.54.12) VH: EVQLVQSGAEVKKPGASVKVSCKASGYTFTDYEMHWVRQAPGQGLEWMGAIDPETGNTAYIQKFKGRVTMTTDKSTSTAYMELRSLRSDDTAVYYCTRFYSYSHWGQGTTVTVSS VL: DIVMTQTPLSLPVTPGEPASISCRSSQSLVHSNRNTYLHWYLQKPGQSPQLLIYKVSNRFSGVPDRFSGSGSGTDFTLKISRVEAEDVGVYYCSQNTHVPPTFGGGTKVEIK"
2.42,22800,7.85,0.00213,271000,"hAb005LH2L1b (antibody, human IgG1, V domains shown, Humanized F3.54.12) VH: EVQLVQSGAEVKKPGASVKVSCKASGYTFTDYEMHWVRQAPGQGLEWMGAIDPETGNTAYIQKFKGRVTLTTDKSTSTAYMELRSLRSDDTAVYYCTRFYSYSHWGQGTTVTVSS VL: DIVMTQTPLSLPVTPGEPASISCRSSQSLVHSNRNTYLHWYLQKPGQSPQLLIYKVSNRFSGVPDRFSGSGSGTDFTLKISRVEAEDVGVYYCSQNTHVPPTFGGGTKVEIK"
1.73,31800,7.41,0.00125,168000,"hAb006LH1L1b (antibody, human IgG1, V domains shown, Humanized F3.38.7) VH: EVQLVQSGAEVKKPGSSVKVSCKASGYTFSDYEIHWVRQAPGQGLEWMGAIDPKTGNTAYNQKFMGRVTITADKSTSTAYMELSSLRSEDTAVYYCTRYFSFAYWGQGTLVTVSS VL: DIVMTQTPLSLPVTPGEPASISCRSSQTFVHSNANTYLQWYLQKPGQSPQLLIYKVSNRFSGVPDRFSGSGSGTDFTLKISRVEAEDVGVYYCFQGSHVPYTFGQGTKLEIK"
1.65,32800,4.3,0.000678,158000,"hAb006LH2L1 (antibody, human IgG1, V domains shown, Humanized F3.38.7) VH: EVQLVQSGAEVKKPGSSVKVSCKASGYTFTDYEIHWVRQAPGQGLEWMGAIDPKTGNTAYNQKFMGRVTITADKSTSTAYMELSSLRSEDTAVYYCTRYFSFAYWGQGTLVTVSS VL: DIVMTQTPLSLPVTPGEPASISCRSSQTFVHSNGNTYLQWYLQKPGQSPQLLIYKVSNRFSGVPDRFSGSGSGTDFTLKISRVEAEDVGVYYCFQGSHVPYTFGQGTKLEIK"
1.83,31500,9.28,0.00128,138000,"hAb006LH2L1b (antibody, human IgG1, V domains shown, Humanized F3.38.7) VH: EVQLVQSGAEVKKPGSSVKVSCKASGYTFTDYEIHWVRQAPGQGLEWMGAIDPKTGNTAYNQKFMGRVTITADKSTSTAYMELSSLRSEDTAVYYCTRYFSFAYWGQGTLVTVSS VL: DIVMTQTPLSLPVTPGEPASISCRSSQTFVHSNANTYLQWYLQKPGQSPQLLIYKVSNRFSGVPDRFSGSGSGTDFTLKISRVEAEDVGVYYCFQGSHVPYTFGQGTKLEIK"
1.78,32500,8.4,0.00136,162000,"hAb006LH3L1b (antibody, human IgG1, V domains shown, Humanized F3.38.7) VH: EVQLVQSGAEVKKPGSSVKVSCKASGYTFTDYEIHWVRQAPGQGLEWMGAIDPKTGNTAYNQKFMGRVTLTADKSTSTAYMELSSLRSEDTAVYYCTRYFSFAYWGQGTLVTVSS VL: DIVMTQTPLSLPVTPGEPASISCRSSQTFVHSNANTYLQWYLQKPGQSPQLLIYKVSNRFSGVPDRFSGSGSGTDFTLKISRVEAEDVGVYYCFQGSHVPYTFGQGTKLEIK"
